According to US20090004749, “METHOD AND KIT FOR DETERMINING THE AMOUNT OF DNA BINDING PROTEIN” (SYSMEX CORPORATION, published 2009):

Columns and labels:
NF-κB (recombinant, p50) [1] = molecular target: T1, NF-κB (recombinant, p50) (UniProt P19838 P19838:1-433); assay: competition; FCS; no competition at 50 nM; diffusion time same as without competitor; settings: tags: Promega; detected with anti-p50 antibody; chain copies: 2; hairpin, stem-loop with AAAA loop
Experimental: (§1) As a pure-line sample, 0.6 μg/μl solution of recombinant NF-κB was used. […] As the control, a pure-line sample-free sample using the fluorescent-labeled probe Pfw only as a nucleic acid probe was used. In the Reference Example, the sample to which an anti-p50 antibody had further been added was used. The reaction time was 10 minutes for each sample.

NF-κB (recombinant, p50) [2] = molecular target: T1, NF-κB (recombinant, p50); assay: fluorescence correlation spectroscopy; 1 nM probe, room temperature; 10 min; settings: tags: Promega; detected with anti-p50 antibody; chain copies: 2; label: 5'-TAMRA; hairpin, stem-loop with AAAA loop
Experimental: as §1

NF-κB (recombinant, p50) [3] = molecular target: T1, NF-κB (recombinant, p50); assay: competition; FCS; unlabeled competitor against 1 nM Pfw; settings: tags: Promega; detected with anti-p50 antibody; chain copies: 2; hairpin, stem-loop with AAAA loop
Experimental: as §1

T1 sequence (P19838 1-433, one chain of several): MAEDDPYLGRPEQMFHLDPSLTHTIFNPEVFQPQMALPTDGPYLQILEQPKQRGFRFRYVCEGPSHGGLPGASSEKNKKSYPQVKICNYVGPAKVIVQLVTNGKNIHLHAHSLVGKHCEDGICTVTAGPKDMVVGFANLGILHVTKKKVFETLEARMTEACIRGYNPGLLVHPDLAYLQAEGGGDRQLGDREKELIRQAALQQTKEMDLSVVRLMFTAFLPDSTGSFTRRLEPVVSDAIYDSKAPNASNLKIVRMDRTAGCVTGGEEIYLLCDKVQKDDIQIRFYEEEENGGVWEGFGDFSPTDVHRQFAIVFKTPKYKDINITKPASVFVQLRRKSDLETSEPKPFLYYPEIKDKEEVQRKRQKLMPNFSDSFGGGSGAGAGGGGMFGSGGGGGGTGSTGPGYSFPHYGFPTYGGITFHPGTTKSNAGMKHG

CAGGCGCGTTTTGACCATCTTAAAAAAGATGGTCAAAACGCGCCTG (structured_DNA) [Pn]: no binding (NF-κB (recombinant, p50) [1]).

AGTTGAGGGGACTTTCCCAGGCAAAAGCCTGGGAAAGTCCCCTCAACT (structured_DNA) [Pfw]: binds (NF-κB (recombinant, p50) [2]).

AGTTGAGGGGACTTTCCCAGGCAAAAGCCTGGGAAAGTCCCCTCAACT (structured_DNA) [Pw]: binds (NF-κB (recombinant, p50) [3]).
